Experimental data from a protein production outcome set (Wang et al. 2014).

Test: label from the status in PepcDB records
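Also: failed if final PepcDB status was selected cloned or expressed and not failed if soluble or beyond.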

Sequence	protein production
MILNILLNLAIFIIPSLAVWNQIILYIFGKSGDIANLILLNNESNLPKLSIIVPTKGERIEVIQGLIDNIHEAIWDRNKLEIIIVSDDEQEYFDKLLSTLIIPPDLDVRIFRREKKLGYKSGALAFGLQKSTGDLILTLDVDARIEKDSLIKAYNHMVNLGCDAITMEWHGYSNISTSLAKALMVSTVLTSKSILRGRDKLGLKVLPIGCGTIYKRSALEAVNGWDYKMIQDDYELGARLINKGFKVCASSSPVYVEVPDNLIAFYVQQTRWAMGTMEVLYWRFKYIISSDIKLWQKLEIIAYLSQYIPIILTFISAIIFAIAGFVGIRLSMNLPMFIIWAITLSIYASIFVNSAKKSGIDTVTAIKALGRLSAYTVGISPFLLIGTINAFKKTRTYIVTPKGKKAKSNIGYPILAFGVFFILSAFLYMFRGDFLTFIWLAYYSIAFLYTFIAYIKGL	failed
MILSAEQSFTLRHPHGQAAALAFVREPAAALAGVRFLRGLDSDGEQVWGELLVTVPLLGEVDLPFRSEIVRTPQGAELRPLTLTGERAWVAVSGQATAAEGGEMAFAFQFQAHLATPEAEGWGGAAFEKMVQAAAGRTLERVAKALPEGLAAGLPPA	not failed
MILSLNLLHKISPKLKKIPLNELCAALMDLGCEVETINSIKPSTNLVFAKVLEKTRHPNANHLNLVKVKANQKVYEIVCGANNFSVHNWVVLAKLNAELANGLKITPRELRGYVSNGMLCAYSEINPQATSFLTSTDLDGILVLDDNYDHYKTPNQIFNLDDVILDLSIPSNRNDLNGYFWIAKELCAYFDFEYVVDATINHRPHKEIIDVRILSDDVNSYGIIEVKNIQNYILKWNTKSILINNQIKVLNNFADNMNFLTLLTANPLHAFDARKISGQIVVKNAEEDAILLGLDQKEYLIKKGDLIIVDDQKILALAGIIGSNDSKIDATSTTAYIECANFNPMLIANTARRLKINTAAAMRFSKPLTNYVTKVTLKKLLANFKSDAKLIYYFKHSVHNVIKNKINQVSDFVGAEIDLDTAQTFLKRLGYKINKSNLITPSHRYDVLNEFDVYEDIMKKISIQEIKPQPISFDILNFENNLAYDFEKKVSDFLVDQGLFECKTYNLKNQTQAHEFNFFNFKQAYEINNPTSNMRSHLKLNNLNSLLEVLEYNQNQKNELENIFEISKINPVDSSQQTVLSIILCKPLINSKINDSLIVNNFVTTKALLHALLTKLNIDYAYDKNHVVNELYDNNQLALINANKQVFGFIGQLKNQVKKTYGLSNDIFIINLNLTSYLNQKQVITKVIKPSMYHDVIRDISVKLASDVDLNNIIANIKKIKNIRKVEISDLYIKDDGIIYTFKYYINDHLSNLSSEQIIIIEQEVNNYLKQF	failed
MILSNYFKFLSHQLKGWPQQNYYLFYFSLGCQVMTLVSAPITALSILTFIGTTLGVLCVLAINAAKSVNGLLGVISAACFIVVGFSAKNYLSIGEQLAYVVTLDIPVLLSANWNVNMVSKIRKFTGKTWIVAIVATLVVYAISGYLIGALTDDPRPWVDAISFAICLTAGVICFLRYNNQYFWWIASGLAQMVLWFISFRQGSATLAMFINSSVYLMNDVLAFTVSPWYNKHERARLMAEEQAASDAASADASDNQAFGLNH	failed
MILTVGNTKGGVGKTTLAVNLAVERFLAGKDVLLIDADNQRTSSAFSALRESLHGQTGYTCIELSGSAVHQQGRNLAPKYDEVIIDVGGRDTSALRGALAISDIALVPFAVGTFDIWAAEDIGRLIEEARGFNPTLRAFSVLNMADPAGGDNADAAGLLTETSALVYLRASLVRRKAMRNAAAAGLGVLEMTGSSRDSKACGEVGYLAELLYNKLNLEHHHHHH	failed
MILVSLVVVLFLVLLNGVFSMSELAVVSARKARLQGFAERGDRGAKLALEMSEHPTRFLSAVQVGITLIGIFAGAYGQATIAAALDAWLEASVPALAKYSEAIATTLVVIGLTYVSVILGELVPKRLALIFPDAIARRMAPFLAVVATVLRPFVTLLTVSTAAVLRLMGVRDERNTSVTSEEVEAVLAEGADAGLIEPEERSMIQEVLRLGDRPVRVAMTPRRDLFWVSLADDTETVLKEIRASAHSRIVVATEGDLDGDVGVLLKKDLLDACLSGEPLDLKAHVQQPLAIPETMSLLKALQLFKSTSLHMALVVDEFGSLQGAITPLDLLEMIAGDFPEDHDDDEKRIIRREDGGWLIDARLDIQELNDHLGENFEADGGYHTVAGLILDRLGRLPTEGEHVEIGGFDLEIVDMDGSRIDKVILKPSKRRKEGQEG	failed
MILYVFLFFVGLLLLYLGAEGLIQGASSIALQYGIRPVILGLTVVALGTSMPEYLVNVFALISGESPLAIGNIIGSNISNVALILGACAVVLPLAVTPEVLRREYPVMLGVMVLFYLCALDGVIGARDGVLMVVLLSGLAAYVFYDAHRTTRGTVLESMEGELDAADPDLSTLAKAVYVIGGMGGLTLGAHLMVDNALAISDVLNIDHVVIGLTVVAIGTSLPELAASMVGTLKQEVDMTVGNVIGSNLLNVLFVVGTLAIAEPITVDPETIRLHFPVMLGFCALLVPLTWWDQKITRVEGAFMVIAFLGFMVFLYV	failed
MIMEHEYRLEVRGYELDSFGHVNNAVYLNYLEAARWDLCSKLNLTDYNESNELFIVVIETNIKYIRELKLFDKVLIKTELTYEDDYLIFKHNIYNEVTKRKASVAKSKMVLVSKQRIIYEIPQFIKDKLDICAYGLEHHHHHH	failed
MIMTSDIKLLDYLRVRRSTPALQLSEPGPSKGEIEEILRLAVRVPDHGKLAPWRFVVYRGEERVRLSEAALRIALEKNPDLDLQQQEAERTRFTRAPVVIAVISTAKPHFKIPEWEQVMSAGAVCLNVIFAANASGFAANWLTEWLAFDPAFLAEIGVSAEEKVAGYIHIGSTTFPPVERPRPELADVVTWVGDV	not failed
MINDIILLLFVKIKRRLMMDKLFKLKENGTDVRTEVLAGLTTFFAMSYILFVNPQILSQTGMPAQGVFLATIIGAVAGTLMMAFYANLPYAQAPGMGLNAFFTFTVVFGLGYSWQEALAMVFICGIISLIITLTNVRKMIIESIPNALRSAISAGIGVFLAYVGIKNAGLLKFTIDPGNYTVVGEGADKAQATIAANSSAVPGLVSFNNPAVLVALAGLAITIFFVIKGIKGGIILSILTTTVLAIAVGLVDLSSIDFANNHVGAAFEDLKTIFGAALGSEGLGALVSDTARLPETLMAILAFSLTDIFDTIGTLIGTGEKVGIVATNGENHQSAKLDKALYSDLIGTTVGAIAGTSNVTTYVESAAGIGAGGRTGLTALVVAICFAISSFFSPLLAIVPTAATAPILIIVGIMMLGSLKNIHWDDMSEAVPAFFTSIFMGFSYSITQGIAVGFLTYTLTKLVKGQVKDVHVMIWILDALFILNYISMAL	failed
MINFFDLFLSDFLTSLRLFCKVWDEQTTLQALLEHVRAIPGHCQKKILTKLLVTDIWDKEDTKLLAALKHIDVRPTRVACRPSLQVLGLYNDVVTVFQTHGMGWYREIDEDVYPKLVKEFIATCRLTYANPENPKASQGTLTFFLNKKHYNKTMFEIYDMYGFTKGEAVEFSKLSPTHITSLLSTTNPVFEHNEQYLVPDPSKTVPRRRRTAEAQPTDEHVISNDEIYEDYAYPTSLAHAQPYLLLPEDPTPYRVSPPPAGDDISQQMAWMIALTRKNNSMMHKMWRAISRIRPCVCTRRGGVDDANRENQSKTIEDRHAERLVPAAGPSGASTSQPPPEHSQAVA	not failed
MINHKIFPTADAVVKSLADDMLAYSQQGQPVHISLSGGSTPKMLFKLLASQPYANDIQWKNLHFWWGDERCVAPDDAESNYGEANALLFSKINMPAQNIHRILGENEPQAEAERFAQAMAHVIPTENGTPVFDWILLGVGADGHTASLFPGQTDYADANLSVVASHPESGQLRVSKTAKVLQAAKRISYLVLGAGKAEIVEQIHTTPAEQLPYPAAKIHSTSGVTEWYLDSDAAAKIA	not failed
MINKPNQFVNHLSALKKHFASYKELREAFNDYHKHNGDELTTFFLHQFDKVMELVKQKDFKTAQSRCEEELAAPYLPKPLVSFFQSLLQLVNHDLLEQQNAALASLPAAKIIELVLQDYPNKLNMIHYLLPKTKAFVKPHLLQRLQFVLTDSELLELKRFSFFQALNQIPGFQGEQVEYFNSKLKQKFTLTLGEFEIAQQPDAKAYFEQLITQIQQLFLKEPVNAEFANEIIDAFLVSYFPLHPPVPLAQLAAKIYEYVSQIVLNEAVNLKDELIKLIVHTLYEQLDRPVGDEN	not failed
MINKTLLQKRFNGAAVSYDRYANVQKKMAHSLLSILKERYSETASIRILELGCGTGYVTEQLSKLFPKSHITAVDFAESMIAIAQTRQNVKNVTFHCEDIERLRLEESYDVIISNATFQWLNNLQQVLRNLFQHLSIDGILLFSTFGHETFQELHASFQRAKEERNIKNETSIGQRFYSKDQLLHICKIETGDVHVSETCYIESFTEVKEFLHSIRKVGATNSNEGSYCQSPSLFRAMLRIYERDFTGNEGIMATYHALFIHITKEGKR	failed
MINLWPLLLPAAAWSGWWLANRSNSNKDAHVHNRLSREYVVGLNYLLNEQSDKAVDVFIKLLEVDSDTVETHLALGSLFRRRGEVDRAIRIHQNLIARPQLSIQQRKEALMALGQDYMSAGVFDRAERIFLEVVELGGSRDTSSLQGLLAIYQQEKAWEKALDIIKKLEISTGASFHNQAAHYYCEMASQALKINAMDRAIYCIKQAMNVDPESVRASLMNATIEIKEGRYKQAIRSLKRVPQQDAEFLTEIIEPLVLCHKELDSMPDCIHYLEQTLEKHPRASVIFVIADYLRQNKGMDIAIDFVADNLSKHPSIRGLNRLIYWHLESAHGKVREKLQMLYDITSKFLDNKPIYRCGHCGFGGKHLHWHCPSCKQWGRMKPIHGLEGD	failed
MINMYIPQFNPRIRKDQKSGLFFFEIRDNEGKTVSYQSGFNTKREAENTALEIQQKLRQGYTLDRYTSLYDWFQTWYDLKIRPKKKLSQETKKNYQIYGETLKRLFGDKPIIDIKSSQYQRIMNVYGETVGYDYLSRINSVIRKIIKLAQSDKIVIDDFTSTVELFAGKDGQKVNEKYIHSVEDYHRLISYLENNLNYEDSVVNHVIYVIAKTGMRYGEIIGLTNNDTSLDEHYLHTYKRYNTSTWKWTNAKNESSKRYIPIDDKIVAALSNMIKERERINSLLRIKNKEEFLFFHYGLEHGIPSVATVNKALKKILKKLDIEPIITTKGLRHTYGSYLLHNNIDMGVVARILGHKDIQMLIQVYGHTLTEKIDKEFKEVEQIMNRI	failed
MINSVITQMAEELRKASKVALFSHVSPDGDCIGSMLGIGLALEALGKEVAMFNPDPIPRNLSFLPGVDKITQSMPDPLPETLLFVDCADLQRVQLQREDLPADAVILNLDHHISNQNFGRINWVDSQAAASGELAYALVRRLNVELTQEIAANFYTALLTDTGSFKYANTTAKTHQIAGELMETGISLGDIHHFVFDQTPMVKLELLRRGLNQLQFFAEGQLGMMTLRKQDFEESGAEESLSEGLIDHARTVEGVEVAVLLKEVKPDVVRVSLRSNRWFDVNRIADGFGGGGHQRAAGCTLHLSLEEAKQKVRQIIEEELKLGRSHLEHHHHHH	not failed
MIPPGAQTPCPAGTRGDEATQLRRFVASVPNRISIGAARGAAPLSALLGLLLLGGAWTLRDHPGPGHEAAALCLLAAAALLMCLACLQRNARSAPFLVLGQGRLRARSLSAPLDLLEVADLRLEDGVWFSAIVLELHGKALPAPSTRPLDPFAARAVSECRDGPRVRLLSPGWRLNGRNLSLLEAAEVIDLYLDIARAQARLRQLGEIPPSASSSLPTPRIFP	failed
